From article PMC7596504, “Molecular mechanism of the MORC4 ATPase activation” (Nature Communications, 2020)

Columns and labels:
NCP147 = assay: FRET, LexA titration into Cy3-Cy5 labeled NCP147; assay type: binding; conditions: addition of MORC4 ATPaseCW
Procedure: Histone octamers unlabeled or labeled with Cy5 at H2AK119 were prepared as previously described. NCPs were reconstituted by combining octamer with 1.25× excess DNA and performing slow salt dialysis. Free DNA was then separated from fully reconstituted NCPs by sucrose gradient purification. NCPs for fluorescence polarization assays were reconstituted from unlabeled octamer and 207 bp DNA containing the 601 Widom sequence flanked with a 30 bp linker on either side and internally labeled with Fluorescein 27 bp in from the 5′ end. Cy3-Cy5 labeled NCPs for FRET assays were reconstituted with Cy5 labeled octamer plus either 147 bp 601 Widom DNA containing a LexA transcription factor binding site at bases 8–27[34], or 252 bp DNA containing the 601 Widom sequence with a 75 bp linker at the 3′ end, a 30 bp linker at the 5’ end, and a Gal4 transcription factor binding site at bases 8–26 in the 601 Widom sequence. The 147 bp LexA-binding DNA was labeled with Cy3 on the 5′ end, and the 252 bp Gal4-binding DNA was internally labeled with Cy3 34 bp in from the 5′ end.
LexA was expressed in E. coli, separated from genomic DNA and the proteome by polyethyleneimine precipitation, and salted out with ammonium sulfate. LexA was resuspended in buffer A (20 mM potassium phosphate pH 7, 0.1 mM EDTA, 10% glycerol, 1 mM DTT) + 200 mM NaCl and purified by a linear gradient to A + 800 mM NaCl over either a cellulose phosphate or HiTrap Heparin HP column. […]
(§1) Cy3-Cy5 NCP FRET efficiency measurements were carried out on a Horiba Scientific Fluoromax 4. […] LexA titrations were carried out in 20 mM Tris pH 7.5, 75 mM NaCl, 10% glycerol, 0.00625% Tween 20 buffer with 5 nM 147 bp Cy3-Cy5 NCPs mixed in 20 µL reaction volumes and allowed to incubate for 5 mins at 4 °C before FRET of the sample was measured. […] Gal4 (1–147) titrations were carried out in 10 mM Tris pH 8, 130 mM NaCl, 10% glycerol, 0.0075% Tween 20 buffer with 1 nM 252 bp Cy3-Cy5 nucleosomes mixed in 60 µL reaction volumes and allowed to incubate for 10 mins at room temperature before FRET of the sample was measured. […]

NCP252 = assay: FRET, Gal4 titration into Cy3-Cy5 labeled NCP252; assay type: binding
Procedure: Histone octamers unlabeled or labeled with Cy5 at H2AK119 were prepared as previously described. NCPs were reconstituted by combining octamer with 1.25× excess DNA and performing slow salt dialysis. Free DNA was then separated from fully reconstituted NCPs by sucrose gradient purification. NCPs for fluorescence polarization assays were reconstituted from unlabeled octamer and 207 bp DNA containing the 601 Widom sequence flanked with a 30 bp linker on either side and internally labeled with Fluorescein 27 bp in from the 5′ end. […]
as §1

B1: ATPaseCW: ATPaseCW cassette (aa 29–486) of human MORC4 (Q8TE76) (protein)
chain: GIRLSTMSPRYLQSNSSSHTRPFSAIAELLDNAVDPDVSARTVFIDVEEVKNKSCLTFTDDGCGMTPHKLHRMLSFGFTDKVIKKSQCPIGVFGNGFKSGSMRLGKDALVFTKNGGTLTVGLLSQTYLECVQAQAVIVPIVPFNQQNKKMIITEDSLPSLEAILNYSIFNRENDLLAQFDAIPGKKGTRVLIWNIRRNKNGKSELDFDTDQYDILVSDFDTEEKMTGGVTSELPETEYSLRAFCGILYMKPRMKIFLRQKKVTTQMIAKSLANVEYDTYKPTFTNKQVRITFGFSCKNSNQFGIMMYHNNRLIKSFEKVGCQVKPTRGEGVGVIGVIECNFLKPAYNKQDFEYTKEYRLTINALAQKLNAYWKEKTSQDNFETSTVARPIPKVPDQTWVQCDECLKWRKLPGKIDPSMLPARWFCYYNSHPKYRRCSVPEEQELTDEDLCLSKAKKQE
modifications: left off: GST, end not stated, cleaved
effect on binding of LexA to NCP147 (NCP147): decrease in binding of LexA to NCP147
effect on nucleosome unwrapping-wrapping equilibrium (NCP252): shifts the unwrapping-wrapping equilibrium toward the wrapped state
